Data reported in article PMC2947474 (Molecular Biology of the Cell, 2010).

How the values were obtained:
V5-tagged Vps54 = target: T1, V5-tagged Vps54 (human, UniProt Q9P1Q0 1-977); test: sedimentation velocity on glycerol gradient + SEC
T1 sequence: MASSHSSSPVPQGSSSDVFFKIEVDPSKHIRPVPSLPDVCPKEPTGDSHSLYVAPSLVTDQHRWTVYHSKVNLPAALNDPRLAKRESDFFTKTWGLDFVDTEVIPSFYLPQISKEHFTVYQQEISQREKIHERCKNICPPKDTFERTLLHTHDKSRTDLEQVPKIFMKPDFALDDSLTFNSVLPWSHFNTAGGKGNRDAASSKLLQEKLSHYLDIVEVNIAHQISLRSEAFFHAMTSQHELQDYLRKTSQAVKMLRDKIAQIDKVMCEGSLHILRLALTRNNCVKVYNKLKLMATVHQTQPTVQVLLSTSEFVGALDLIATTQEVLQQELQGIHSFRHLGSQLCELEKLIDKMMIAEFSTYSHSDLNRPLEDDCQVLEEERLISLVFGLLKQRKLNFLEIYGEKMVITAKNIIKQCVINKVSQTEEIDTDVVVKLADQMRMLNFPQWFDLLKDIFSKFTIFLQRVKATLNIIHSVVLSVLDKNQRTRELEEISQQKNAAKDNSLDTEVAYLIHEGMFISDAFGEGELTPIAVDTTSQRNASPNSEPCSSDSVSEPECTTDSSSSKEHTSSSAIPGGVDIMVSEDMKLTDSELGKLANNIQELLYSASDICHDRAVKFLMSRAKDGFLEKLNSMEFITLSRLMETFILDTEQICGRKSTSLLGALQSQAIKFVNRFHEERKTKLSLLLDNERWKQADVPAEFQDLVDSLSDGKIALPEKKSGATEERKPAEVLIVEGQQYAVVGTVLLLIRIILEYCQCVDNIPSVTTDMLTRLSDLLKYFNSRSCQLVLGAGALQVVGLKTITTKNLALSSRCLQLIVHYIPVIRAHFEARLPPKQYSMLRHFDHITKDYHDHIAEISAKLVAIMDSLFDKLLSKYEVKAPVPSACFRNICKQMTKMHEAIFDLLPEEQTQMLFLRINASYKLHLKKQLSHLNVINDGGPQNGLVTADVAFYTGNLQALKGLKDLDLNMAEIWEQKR

V5-tagged Vps53 = target: T2, V5-tagged Vps53 (human, UniProt Q5VIR6 1-832); test: sedimentation velocity on glycerol gradient + SEC
T2 sequence: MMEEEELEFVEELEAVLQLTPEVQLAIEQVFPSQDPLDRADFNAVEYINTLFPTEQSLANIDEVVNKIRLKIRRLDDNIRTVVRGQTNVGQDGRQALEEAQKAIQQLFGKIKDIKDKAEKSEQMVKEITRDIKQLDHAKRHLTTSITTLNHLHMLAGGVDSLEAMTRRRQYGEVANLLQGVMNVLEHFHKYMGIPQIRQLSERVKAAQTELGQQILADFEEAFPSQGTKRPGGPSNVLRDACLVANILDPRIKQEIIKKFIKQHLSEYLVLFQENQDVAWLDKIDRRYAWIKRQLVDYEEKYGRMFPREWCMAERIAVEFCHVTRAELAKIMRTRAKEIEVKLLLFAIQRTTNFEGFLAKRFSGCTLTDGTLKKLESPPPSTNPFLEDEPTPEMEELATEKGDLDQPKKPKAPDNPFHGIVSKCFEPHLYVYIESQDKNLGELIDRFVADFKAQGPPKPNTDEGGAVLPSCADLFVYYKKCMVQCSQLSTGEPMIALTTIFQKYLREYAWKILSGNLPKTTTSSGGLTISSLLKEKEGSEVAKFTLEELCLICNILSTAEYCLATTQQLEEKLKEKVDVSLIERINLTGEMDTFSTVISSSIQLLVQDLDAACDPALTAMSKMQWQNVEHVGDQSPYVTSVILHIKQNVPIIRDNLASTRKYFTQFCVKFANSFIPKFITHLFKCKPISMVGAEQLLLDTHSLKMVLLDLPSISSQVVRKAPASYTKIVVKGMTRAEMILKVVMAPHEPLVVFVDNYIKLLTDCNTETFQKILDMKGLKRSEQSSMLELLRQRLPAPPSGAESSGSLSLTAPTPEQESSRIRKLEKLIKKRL

B1: V5-tagged human Ang2 (natural protein)
chain: MAAAAAAGPSPGSGPGDSPEGPEGEAPERRRKAHGMLKLYYGLSEGEAAGRPAGPDPLDPTDLNGAHFDPEVYLDKLRRECPLAQLMDSETDMVRQIRALDSDMQTLVYENYNKFISATDTIRKMKNDFRKMEDEMDRLATNMAVITDFSARISATLQDRHERITKLAGVHALLRKLQFLFELPSRLTKCVELGAYGQAVRYQGRAQAVLQQYQHLPSFRAIQDDCQVITARLAQQLRQRFREGGSGAPEQAECVELLLALGEPAEELCEEFLAHARGRLEKELRNLEAELGPSPPAPDVLEFTDHGGSGFVGGLCQVAAAYQELFAAQGPAGAEKLAAFARQLGSRYFALVERRLAQEQGGGDNSLLVRALDRFHRRLRAPGALLAAAGLADAATEIVERVARERLGHHLQGLRAAFLGCLTDVRQALAAPRVAGKEGPGLAELLANVASSILSHIKASLAAVHLFTAKEVSFSNKPYFRGEFCSQGVREGLIVGFVHSMCQTAQSFCDSPGEKGGATPPALLLLLSRLCLDYETATISYILTLTDEQFLVQDQFPVTPVSTLCAEARETARRLLTHYVKVQGLVISQMLRKSVETRDWLSTLEPRNVRAVMKRVVEDTTAIDVQVGLLYEEGVRKAQSSDSSKRTFSVYSSSRQQGRYAPSYTPSAPMDTNLLSNIQKLFSERIDVFSPVEFNKVSVLTGIIKISLKTLLECVRLRTFGRFGLQQVQVDCHFLQLYLWRFVADEELVHLLLDEVVASAALRCPDPVPMEPSVVEVICERG
- stoichiometry N (V5-tagged Vps54): 1
- stoichiometry N (V5-tagged Vps53): 1
